Measured values published in US20220340924.

Molecular target: T1, MYB46-GFP fusion
T1 chain: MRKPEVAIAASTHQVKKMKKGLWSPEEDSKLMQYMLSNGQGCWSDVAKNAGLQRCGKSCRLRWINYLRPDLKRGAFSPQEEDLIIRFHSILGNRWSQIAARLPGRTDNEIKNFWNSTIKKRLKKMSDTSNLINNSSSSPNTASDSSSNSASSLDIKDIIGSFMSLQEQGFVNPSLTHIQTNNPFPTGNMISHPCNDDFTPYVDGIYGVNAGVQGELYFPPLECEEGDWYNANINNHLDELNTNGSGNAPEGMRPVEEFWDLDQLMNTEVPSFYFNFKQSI

B1: CAMPK6-HA (hemagglutinin conjugated CAMPK6) (protein)
chain: MDGGSGQPAADTEMTEAPGGFPAAAPSPQMPGIENIPATLSHGGRFIQYNIFGNIFEVTAKYKPPIMPIGKGAYGIVCSAMNSETNESVAIKKIANAFDNKIDAKRTLREIKLLRHMDHENIVAIRDIIPPPLRNAFNDVYIAYELMDTDLHQIIRSNQALSEEHCQYFLYQILRGLKYIHSANVLHRDLKPSNLLLNANCDLKICDFGLARVTSESGFMTAYVVTRWYRAPELLLNSSDYTAAIDVWSVGCIFMELMDRKPLFPGRDHVHQLRLLMELIGTPSEEELEFLNENAKRYIRQLPPYPRQSITDKFPTVHPLAIDLIEKMLTFDPRRRITVLDALAHPYLNSLHDISDEPECTIPFNFDFENHALSEEQMKELIYREALAFNPEYQQ
immunocomplex kinase assay (phosphorylation of MYB46): CAMPK6 directly phosphorylates MYB46
